Data on 78 sequences can be found in the supplement of paper PMC7877785.

A short description of this data set: self-splicing fitness, log relative to wild type (ln ratio); higher = more splicing; Tetrahymena group I intron in knt gene, E. coli kanamycin selection, DiMSum; sequences stand for … in CUCUCU…GGAGGGAAAAGUUAUCAGGCAUGCACCUGGUAGCUAGUCUUUAAACCAAUAGAUUGCAUCGGUUUAAAAGGCAAGACCGUCAAAUUGCGGGAAAGGGGUCAACAGCCGUUCAGUACCAAGUCUCAGGGGAAACUUUGAGAUGGCCUUGCAAAGGGUAUGGUAAUAAGCUGACGGACAUGGUCCUAACCACGCAGCCAAGUCCUAAGUCAACAGAUCUUCUGUUGAUAUGGAUGCAGUUCACAGACUAAAUGUCGGUCGGGGAAGAUGUAUUCUUCUCAUAAGAUAUAGUCGGACCUCUCCUUAAUGGGAGCUAGCGGAUGAAGUGAUGCAACACUGGAGCCGCUGGGAACUAAUUUGUAUGCGAAAGUAUAUUGAUUAGUUUUGGAGUACUCGUGGUCG
The essentials:
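A randomised library covering all eight P1ex-region intron nucleotides was built with the intron in the knt kanamycin-resistance gene on pET-22b(+) and held in E. coli BL21(DE3). Cells were grown overnight at 37°C or 30°C on LB agar, with or without 25 μg/mL kanamycin, plus 100 μg/mL carbenicillin, 50 μM IPTG and 0.2% rhamnose, and pooled colonies were amplicon-sequenced on an Illumina HiSeq 2500. DiMSum fitness is the error-weighted combination of wild-type-normalised replicate fold changes, kanamycin versus none.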

± gives the uncertainty stated by the source.

CUCAAGCAAUAUUACGUUCC: the “self-splicing fitness (ln)” value runs as follows: (30 °C) -3.08 ± 0.32; (37 °C) -2.32 ± 0.26.

As to CUCCAGCAAUAUUACGAACC, the “self-splicing fitness (ln)” value is, setting by setting: (30 °C) -3.49 ± 0.26; (37 °C) -1.91 ± 0.32. The like results for CUCCAGCAAUAUUACGAGAA were, in that order, -2.14 ± 0.38 and -1.91 ± 0.31.

Regarding CUCCAGCAAUAUUACGAGUG, the “self-splicing fitness (ln)” value runs as follows: (30 °C) -2.45 ± 0.11; (37 °C) -1.34 ± 0.11.

Consider CUCCAGCAAUAUUACGAUGA, for which the “self-splicing fitness (ln)” value is -2.36 ± 0.25 (30 °C) and -2.7 ± 0.27 (37 °C). The like results for CUCCAGCAAUAUUACGCAUU were, in that order, -3.38 ± 0.13 and -3.51 ± 0.23. On to CUCCAGCAAUAUUACGCCCC, for which the “self-splicing fitness (ln)” value (30 °C) is -4.17 ± 0.46. Regarding CUCCAGCAAUAUUACGGCAA, the “self-splicing fitness (ln)” value is, setting by setting: (30 °C) -3.55 ± 0.17; (37 °C) -2.71 ± 0.16. On to CUCCAGCAAUAUUACGGCGG, for which the “self-splicing fitness (ln)” value by setting is: (30 °C) -4.65 ± 0.28; (37 °C) -3.1 ± 0.22. Taken in the same sequence, the figures for CUCCAGCAAUAUUACGGUGG were -3.79 ± 0.19 and -2.42 ± 0.18.

As for CUCCAGCAAUAUUACGGUUC, the “self-splicing fitness (ln)” value is, setting by setting: (30 °C) -2.51 ± 0.17; (37 °C) -3.19 ± 0.35. Turning to CUCCAGCAAUAUUACGUAAA, the “self-splicing fitness (ln)” value was -3.45 ± 0.17 (30 °C) and -2.17 ± 0.18 (37 °C). The like results for CUCCAGCAAUAUUACGUAGA were, in that order, -3.31 ± 0.15 and -2.58 ± 0.16. The like results for CUCCAGCAAUAUUACGUAGG were, in that order, -2.92 ± 0.11 and -1.9 ± 0.15. With CUCCAGCAAUAUUACGUCGG, the “self-splicing fitness (ln)” value by setting is: (30 °C) -3.14 ± 0.15; (37 °C) -2.36 ± 0.15. Taken in the same sequence, the figures for CUCCAGCAAUAUUACGUGUG were -2.17 ± 0.069 and -1.5 ± 0.08. Taken in the same sequence, the figures for CUCCAGCAAUAUUACGUUCC were -4.23 ± 0.46 and -1.99 ± 0.35. Taken in the same sequence, the figures for CUCCAGCAAUAUUACGUUGG were -3.68 ± 0.19 and -2.49 ± 0.21. Regarding CUCGAGCAAUAUUACGAGAU, the “self-splicing fitness (ln)” value is, setting by setting: (30 °C) -2.87 ± 0.23; (37 °C) -2.76 ± 0.27. The like results for CUCGAGCAAUAUUACGAGCG were, in that order, -3.66 ± 0.43 and -2.84 ± 0.25. CUCGAGCAAUAUUACGAGGA: the “self-splicing fitness (ln)” value (30 °C) is -1.94 ± 0.26. In the case of CUCGAGCAAUAUUACGCAAG, the “self-splicing fitness (ln)” value reads like this: (30 °C) -3.95 ± 0.43; (37 °C) -1.35 ± 0.3. As for CUCGAGCAAUAUUACGCACG, where the note is “30 °C”, the “self-splicing fitness (ln)” value was -1.6 ± 0.23. Take CUCGAGCAAUAUUACGCCUC: the “self-splicing fitness (ln)” value (30 °C) was -1.8 ± 0.21. As to CUCGAGCAAUAUUACGCGAG, the “self-splicing fitness (ln)” value reads like this: (30 °C) -3.97 ± 0.42; (37 °C) -2.98 ± 0.47.

On to CUCGAGCAAUAUUACGCUGG, for which the “self-splicing fitness (ln)” value (30 °C) is -4.31 ± 0.24 and the “self-splicing fitness (ln)” value (37 °C) is -3.22 ± 0.22. In the case of CUCGAGCAAUAUUACGGCCU, where the note is “37 °C”, the “self-splicing fitness (ln)” value was -1.37 ± 0.36.

As for CUCGAGCAAUAUUACGUAGC, the “self-splicing fitness (ln)” value (37 °C) is -2.19 ± 0.27. Regarding CUCGAGCAAUAUUACGUCAG, under “37 °C”, the “self-splicing fitness (ln)” value was -0.401 ± 0.39. In the case of CUCGAGCAAUAUUACGUCAU, the “self-splicing fitness (ln)” value is -4.1 ± 0.27 (30 °C) and -3.38 ± 0.28 (37 °C).

With CUCGAGCAAUAUUACGUGAA, the “self-splicing fitness (ln)” value was -2.47 ± 0.21 (30 °C) and -2.93 ± 0.47 (37 °C).

As to CUCGAGCAAUAUUACGUGAU, the “self-splicing fitness (ln)” value runs as follows: (30 °C) -2.16 ± 0.14; (37 °C) -0.542 ± 0.12. Consider CUCGAGCAAUAUUACGUUUC, for which the “self-splicing fitness (ln)” value reads like this: (30 °C) -1.78 ± 0.29; (37 °C) -1.25 ± 0.25. For CUCUAGCAAUAUUACGAAAC, the “self-splicing fitness (ln)” value (30 °C) was -2.61 ± 0.35. The same measure, in the same setting: the same measure for CUCUAGCAAUAUUACGAACC: -3.06 ± 0.37. Turning to CUCUAGCAAUAUUACGAAGU, the “self-splicing fitness (ln)” value runs as follows: (30 °C) -3.44 ± 0.21; (37 °C) -4.77 ± 0.23. In the case of CUCUAGCAAUAUUACGACAG, the “self-splicing fitness (ln)” value was -1.95 ± 0.14 (30 °C) and -0.569 ± 0.13 (37 °C). The like results for CUCUAGCAAUAUUACGACCG were, in that order, -0.158 ± 0.23 and -0.785 ± 0.24. Taken in the same sequence, the figures for CUCUAGCAAUAUUACGAGAA were -3.05 ± 0.41 and -2.02 ± 0.21. Regarding CUCUAGCAAUAUUACGAGAU, the “self-splicing fitness (ln)” value reads like this: (30 °C) -3.29 ± 0.43; (37 °C) -2.94 ± 0.31. The like results for CUCUAGCAAUAUUACGAGCA were, in that order, -3.95 ± 0.33 and -3.04 ± 0.23. CUCUAGCAAUAUUACGAUCG: the “self-splicing fitness (ln)” value is -1.57 ± 0.081 (30 °C) and -0.281 ± 0.12 (37 °C). The like results for CUCUAGCAAUAUUACGAUGA were, in that order, -1.93 ± 0.2 and -1.93 ± 0.29. Taken in the same sequence, the figures for CUCUAGCAAUAUUACGAUGC were -1.49 ± 0.17 and -3.25 ± 0.33. Take CUCUAGCAAUAUUACGAUUG: the “self-splicing fitness (ln)” value is -1.48 ± 0.091 (30 °C) and -1.24 ± 0.12 (37 °C). Taken in the same sequence, the figures for CUCUAGCAAUAUUACGCCCU were -3.28 ± 0.26 and -2.2 ± 0.19. Taken in the same sequence, the figures for CUCUAGCAAUAUUACGCUUU were -3.13 ± 0.28 and -2.08 ± 0.22. The like results for CUCUAGCAAUAUUACGGCGG were, in that order, -3.5 ± 0.15 and -3.12 ± 0.23. With CUCUAGCAAUAUUACGGGGA, the “self-splicing fitness (ln)” value is -1.69 ± 0.17 (30 °C) and -1.62 ± 0.14 (37 °C). Taken in the same sequence, the figures for CUCUAGCAAUAUUACGUCAA were -4.19 ± 0.29 and -3.45 ± 0.25. Turning to CUCUAGCAAUAUUACGUCAU, the “self-splicing fitness (ln)” value reads like this: (30 °C) -2.83 ± 0.4; (37 °C) -4.18 ± 0.39. With CUCUAGCAAUAUUACGUCCC, the “self-splicing fitness (ln)” value was -2.69 ± 0.27 (30 °C) and -3.71 ± 0.39 (37 °C).

For CUCUAGCAAUAUUACGUCUU, the “self-splicing fitness (ln)” value (30 °C) was -2.57 ± 0.12 and the “self-splicing fitness (ln)” value (37 °C) is -3.16 ± 0.16.

As for CUCUAGCAAUAUUACGUUGA, the “self-splicing fitness (ln)” value reads like this: (30 °C) -2.49 ± 0.27; (37 °C) -3.81 ± 0.36.

As for CUGAAGCAAUAUUACGAAAG, the “self-splicing fitness (ln)” value (30 °C) was -0.525 ± 0.12 and the “self-splicing fitness (ln)” value (37 °C) was -0.0848 ± 0.16. As to CUGAAGCAAUAUUACGACGU, the “self-splicing fitness (ln)” value was -2.75 ± 0.12 (30 °C) and -1.09 ± 0.1 (37 °C). As for CUGAAGCAAUAUUACGAGCG, the “self-splicing fitness (ln)” value is 0.242 ± 0.072 (30 °C) and 0.0253 ± 0.1 (37 °C). With CUGAAGCAAUAUUACGAGUC, the “self-splicing fitness (ln)” value (30 °C) is -3.88 ± 0.19 and the “self-splicing fitness (ln)” value (37 °C) was -2.16 ± 0.21. Taken in the same sequence, the figures for CUGAAGCAAUAUUACGAUAA were -2.51 ± 0.25 and -2.06 ± 0.29.

For the sequence CUGAAGCAAUAUUACGCACU, the “self-splicing fitness (ln)” value runs as follows: (30 °C) -4.4 ± 0.39; (37 °C) -1.32 ± 0.18. The like results for CUGAAGCAAUAUUACGCAGC were, in that order, -3.2 ± 0.4 and -1.77 ± 0.45.

Consider CUGAAGCAAUAUUACGCAGU, for which the “self-splicing fitness (ln)” value is, setting by setting: (30 °C) -3.09 ± 0.19; (37 °C) -3.23 ± 0.43.

As for CUGAAGCAAUAUUACGCCGG, the “self-splicing fitness (ln)” value reads like this: (30 °C) -1.86 ± 0.25; (37 °C) -1.19 ± 0.25. Taken in the same sequence, the figures for CUGAAGCAAUAUUACGCGGU were -1.86 ± 0.08 and -0.746 ± 0.081. The like results for CUGAAGCAAUAUUACGCUAG were, in that order, -1.1 ± 0.096 and -0.802 ± 0.099.

In the case of CUGAAGCAAUAUUACGGCCU, the “self-splicing fitness (ln)” value (30 °C) is -4.04 ± 0.26 and the “self-splicing fitness (ln)” value (37 °C) is -2.43 ± 0.33. Consider CUGAAGCAAUAUUACGGCGA, for which the “self-splicing fitness (ln)” value (30 °C) was -3.53 ± 0.27. With CUGAAGCAAUAUUACGGCGU, the “self-splicing fitness (ln)” value reads like this: (30 °C) -3.6 ± 0.41; (37 °C) -2.98 ± 0.47. The like results for CUGAAGCAAUAUUACGGCUG were, in that order, -0.126 ± 0.074 and 0.668 ± 0.11. Take CUGAAGCAAUAUUACGGGGG: the “self-splicing fitness (ln)” value is, setting by setting: (30 °C) -1.46 ± 0.14; (37 °C) -1.28 ± 0.18. As to CUGAAGCAAUAUUACGGGUU, the “self-splicing fitness (ln)” value by setting is: (30 °C) -3.71 ± 0.21; (37 °C) -2.77 ± 0.22. Taken in the same sequence, the figures for CUGAAGCAAUAUUACGGUUG were -0.0856 ± 0.068 and 0.139 ± 0.096.

On to CUGAAGCAAUAUUACGUAAU, for which the “self-splicing fitness (ln)” value is, setting by setting: (30 °C) -2.87 ± 0.24; (37 °C) -2.17 ± 0.5. With CUGAAGCAAUAUUACGUAGG, the “self-splicing fitness (ln)” value was -3.21 ± 0.18 (30 °C) and -2.36 ± 0.25 (37 °C).

As to CUGAAGCAAUAUUACGUCCU, the “self-splicing fitness (ln)” value is -3.45 ± 0.23 (30 °C) and -2.39 ± 0.23 (37 °C). Turning to CUGAAGCAAUAUUACGUGAC, the “self-splicing fitness (ln)” value is -1.24 ± 0.086 (30 °C) and -0.353 ± 0.1 (37 °C). Taken in the same sequence, the figures for CUGAAGCAAUAUUACGUUGU were -4.42 ± 0.13 and -2.28 ± 0.14. Taken in the same sequence, the figures for CUGCAGCAAUAUUACGACUA were -1.58 ± 0.13 and -1.09 ± 0.12.
